Source: EP4796567A2 (Nepenthe Bioscience, LLC, dated 2026)
Residue numbers refer to the chain shown, from its start.

T1: CD79 (UniProt P11912 33-143; P40259 29-159, limits assumed)
T1 construct: also called CD79 antigen; soluble biotinylated CD79 antigen
T1 sequence (looked up) 1: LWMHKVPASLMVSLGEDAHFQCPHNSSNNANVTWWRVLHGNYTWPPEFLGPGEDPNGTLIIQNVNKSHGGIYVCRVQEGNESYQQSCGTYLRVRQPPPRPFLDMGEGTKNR
T1 sequence (looked up) 2: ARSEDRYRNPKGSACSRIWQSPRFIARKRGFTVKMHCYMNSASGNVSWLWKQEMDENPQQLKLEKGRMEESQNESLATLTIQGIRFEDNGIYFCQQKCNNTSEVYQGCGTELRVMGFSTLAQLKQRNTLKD

B1: humanized anti-CD79 antibody H1L2 (antibody, V domains shown)
VH: QVQLVQSGAEVKKPGASVKVSCKASGYAFSYSWMNWVRQAPGQGLEWMGRIYPENGDTNYNGKFKGRVTMTRDTSISTAYMELSRLRSDDTAVYYCARWVYGYPHFDYWGQGTLVTVSS
VL: DVVMTQSPLSLPVTLGQPASISCKSSQSLLDSDGKTYLNWLQQRPGQSPRRLIYLVSKLDSGVPDRFSGSGSGTDFTLKISRVEAEDVGVYYCWQGTHFPFTFGGGTKVEIK
notes: also called LB495/PRI47; PRI43/PRI47
B2: affinity matured anti-CD79 antibody LB495/518 (antibody, V domains shown)
VH: B1 VH
VL: B1 VL with F99I
notes: Full length IgG produced from 293 cells; also called LB495/LB518
B3: affinity matured anti-CD79 antibody LB495/519 (antibody, V domains shown)
VH: B1 VH
VL: B1 VL with F99L
notes: Full length IgG produced from 293 cells; also called LB495/LB519
B4: affinity matured anti-CD79 antibody LB495/520 (antibody, V domains shown)
VH: B1 VH
VL: B1 VL with F99R
notes: Full length IgG produced from 293 cells; also called LB495/LB520
B5: affinity matured anti-CD79 antibody LB495/521 (antibody, V domains shown)
VH: B1 VH
VL: B1 VL with F99V
notes: Full length IgG produced from 293 cells; also called LB495/LB521
B6: affinity matured anti-CD79 antibody LB517/518 (antibody, V domains shown)
VH: B1 VH with Y103L
VL: B1 VL with F99I
notes: Full length IgG produced from 293 cells; also called LB517/LB518
B7: affinity matured anti-CD79 antibody LB517/520 (antibody, V domains shown)
VH: B1 VH with Y103L
VL: B1 VL with F99R
notes: Full length IgG produced from 293 cells; also called LB517/LB520
B8: affinity matured anti-CD79 antibody LB517/521 (antibody, V domains shown)
VH: B1 VH with Y103L
VL: B1 VL with F99V
notes: Full length IgG produced from 293 cells; also called LB517/LB521
B9: affinity matured anti-CD79 antibody LB517/PRI47 (antibody, V domains shown)
VH: B1 VH with Y103L
VL: B1 VL
notes: Full length IgG produced from 293 cells
B10: humanized anti-CD79 antibody LB517/LB519 (antibody, V domains shown)
VH: B1 VH with Y103L
VL: B1 VL with F99L
notes: Full length IgG produced from 293 cells; also called hCur14 FALA
B11: engineered anti-CD79 antibody LB630/519 (antibody, V domains shown)
VH: B1 VH with N55S, Y103L
VL: B1 VL with F99L
notes: First NG motif of VH CDR2 engineered to NS; Produced in 293 cells by transient transfection; also called LB630/LB519
B12: engineered anti-CD79 antibody LB631/519 (antibody, V domains shown)
VH: B1 VH with N61A, Y103L
VL: B1 VL with F99L
notes: Second NG motif of VH CDR2 engineered to NA; Produced in 293 cells by transient transfection; also called LB631/LB519
B13: engineered anti-CD79 antibody LB632/519 (antibody, V domains shown)
VH: B1 VH with N55S, N61A, Y103L
VL: B1 VL with F99L
notes: Both NG motifs of VH CDR2 engineered; Produced in 293 cells by transient transfection; also called LB632/LB519
B14: humanized anti-CD79 antibody H1L1 (antibody, V domains shown)
VH: B1 VH
VL: B1 VL with L41F
B15: humanized anti-CD79 antibody H1L3 (antibody, V domains shown)
VH: B1 VH
VL: B1 VL with R50K
B16: humanized anti-CD79 antibody H2L1 (antibody, V domains shown)
VH: B1 VH with R72A
VL: B1 VL with L41F
B17: humanized anti-CD79 antibody H2L2 (antibody, V domains shown)
VH: B1 VH with R72A
VL: B1 VL
B18: humanized anti-CD79 antibody H2L3 (antibody, V domains shown)
VH: B1 VH with R72A
VL: B1 VL with R50K
B19: humanized anti-CD79 antibody H3L1 (antibody, V domains shown)
VH: B1 VH with M48I, M70L, R72A, T74K
VL: B1 VL with L41F
B20: humanized anti-CD79 antibody H3L2 (antibody, V domains shown)
VH: B1 VH with M48I, M70L, R72A, T74K
VL: B1 VL
B21: humanized anti-CD79 antibody H3L3 (antibody, V domains shown)
VH: B1 VH with M48I, M70L, R72A, T74K
VL: B1 VL with R50K
B22: chimeric anti-CD79 antibody HcLc (antibody, V domains shown)
VH: QVQLQQSGPELVKPGASVKISCKASGYAFSYSWMNWVKQRPGKGLEWIGRIYPENGDTNYNGKFKGKVTLTADKSSSTAYMQLSSLTSEDSAVYFCARWVYGYPHFDYWGQGTTLTVSS
VL: not shown
notes: Mouse VH fused to human IgG2 CH1, CH2 and CH3 domains; mouse VL fused to a human kappa CL domain

Each binder was assayed against T1, CD79 (assay: binding kinetics of full length IgG to CD79; method not named (antibody is the 'Loading Sample')).

Q: B1 was tested. Which Kd did it give?
A: Its Kd is 5.1 nM.

Q: What about the koff of the same binder?
A: The koff was 0.000429 s⁻¹.

Q: What about the kon of the same binder?
A: The kon was 84100 M⁻¹ s⁻¹.

Q: How did the Kd turn out when B2 was run?
A: The Kd was 3.64 nM.

Q: And the koff?
A: Its koff is 0.000332 s⁻¹.

Q: What about the kon of the same binder?
A: The kon was 91200 M⁻¹ s⁻¹.

Q: How did the Kd turn out when B3 was run?
A: Its Kd is 3.14 nM.

Q: What about the koff of the same binder?
A: Its koff is 0.000252 s⁻¹.

Q: What about the kon of the same binder?
A: The kon was 80300 M⁻¹ s⁻¹.

Q: What does the source list for B4?
A: Kd: 3.76 nM; koff: 0.000374 s⁻¹; kon: 99600 M⁻¹ s⁻¹

Q: Which Kd does the source give for B5 here?
A: Its Kd is 3.65 nM.

Q: And the koff?
A: Its koff is 0.000362 s⁻¹.

Q: What about the kon of the same binder?
A: The kon was 99100 M⁻¹ s⁻¹.

Q: How did the Kd turn out when B6 was run?
A: Its Kd is 2.24 nM.

Q: What about the koff of the same binder?
A: The koff was 0.000199 s⁻¹.

Q: And the kon?
A: Its kon is 88500 M⁻¹ s⁻¹.

Q: Which results are given for B7?
A: Kd: 2.4 nM; koff: 0.000234 s⁻¹; kon: 97800 M⁻¹ s⁻¹

Q: With B8 as the binder, how does the Kd read?
A: Its Kd is 2.3 nM.

Q: And the koff?
A: Its koff is 0.000201 s⁻¹.

Q: And the kon?
A: The kon was 87500 M⁻¹ s⁻¹.

Q: What does the source list for B9?
A: Kd: 3.55 nM; koff: 0.000311 s⁻¹; kon: 87500 M⁻¹ s⁻¹

Q: How did the Kd turn out when B10 was run?
A: The Kd was 2 nM.

Q: What about the koff of the same binder?
A: The koff was 0.000159 s⁻¹.

Q: What about the kon of the same binder?
A: Its kon is 79700 M⁻¹ s⁻¹.

What follows are binders tested against T1, CD79 (assay: antigen binding kinetics; method not named (antibody is the 'Loading Sample')).

Q: For B1, which Kd is on record?
A: Its Kd is 9.22 nM.

Q: And the koff?
A: Its koff is 0.000384 s⁻¹.

Q: What about the kon of the same binder?
A: The kon was 41700 M⁻¹ s⁻¹.

Q: What does the source list for B11?
A: Kd: < 0.001 nM; koff: < 1e-07 s⁻¹; kon: 55800 M⁻¹ s⁻¹

Q: How did the Kd turn out when B12 was run?
A: Its Kd is 1.04 nM.

Q: And the koff?
A: Its koff is 6.1e-05 s⁻¹.

Q: And the kon?
A: Its kon is 58600 M⁻¹ s⁻¹.

Q: B13 was tested. Which Kd did it give?
A: The Kd was 0.837 nM.

Q: And the koff?
A: The koff was 5.11e-05 s⁻¹.

Q: And the kon?
A: Its kon is 61000 M⁻¹ s⁻¹.

Q: Which results are given for B10?
A: Kd: 0.706 nM; koff: 4.14e-05 s⁻¹; kon: 58700 M⁻¹ s⁻¹

These binders were tested against T1, CD79 (assay: binding kinetics to CD79; method not named (antibody is the 'Loading Sample')).

Q: For B1, which Kd is on record?
A: The Kd was 45 nM.

Q: And the koff?
A: Its koff is 0.0041 s⁻¹.

Q: And the kon?
A: The kon was 91000 M⁻¹ s⁻¹.

Q: B14 was tested. Which Kd did it give?
A: The Kd was 59 nM.

Q: And the koff?
A: Its koff is 0.0054 s⁻¹.

Q: And the kon?
A: The kon was 92000 M⁻¹ s⁻¹.

Q: For B15, which Kd is on record?
A: The Kd was 49 nM.

Q: What about the koff of the same binder?
A: Its koff is 0.004 s⁻¹.

Q: What about the kon of the same binder?
A: Its kon is 82000 M⁻¹ s⁻¹.

Q: With B16 as the binder, how does the Kd read?
A: Its Kd is 90 nM.

Q: What about the koff of the same binder?
A: The koff was 0.0071 s⁻¹.

Q: What about the kon of the same binder?
A: The kon was 79000 M⁻¹ s⁻¹.

Q: For B17, which Kd is on record?
A: The Kd was 46 nM.

Q: And the koff?
A: Its koff is 0.0046 s⁻¹.

Q: What about the kon of the same binder?
A: Its kon is 100000 M⁻¹ s⁻¹.

Q: Which Kd does the source give for B18 here?
A: Its Kd is 61 nM.

Q: What about the koff of the same binder?
A: The koff was 0.0051 s⁻¹.

Q: And the kon?
A: Its kon is 84000 M⁻¹ s⁻¹.

Q: For B19, which Kd is on record?
A: The Kd was 290 nM.

Q: And the koff?
A: Its koff is 0.013 s⁻¹.

Q: What about the kon of the same binder?
A: The kon was 43000 M⁻¹ s⁻¹.

Q: How did the Kd turn out when B20 was run?
A: Its Kd is 140 nM.

Q: And the koff?
A: The koff was 0.0086 s⁻¹.

Q: What about the kon of the same binder?
A: The kon was 61000 M⁻¹ s⁻¹.

Q: Which results are given for B21?
A: Kd: 130 nM; koff: 0.011 s⁻¹; kon: 79000 M⁻¹ s⁻¹

Q: With B22 as the binder, how does the Kd read?
A: The Kd was 60 nM.

Q: What about the koff of the same binder?
A: Its koff is 0.0056 s⁻¹.

Q: What about the kon of the same binder?
A: The kon was 93000 M⁻¹ s⁻¹.
